Here are results for three molecules from article PMC3539201 (Journal of cell science, 2008).

Sequences and labels used below:
B1: GFP-KASH-2 (domain or fragment)
chain: not shown
B2: GFP-KASH-3α (domain or fragment, mouse, UniProt Q4FZC9 917-975, looked up)
chain: CSLLQKACRVALPLQLLLLLFLLLLFLLPAGEEERSCALANNFARSFALMLRYNGPPPT
B3: GFP-KASH-1 (domain or fragment)
chain: not shown

In this assay the target is T1, torsinA (endogenous, 293T cells) (human (endogenous in 293T), UniProt O14656 21-332).
T1 sequence (looked up): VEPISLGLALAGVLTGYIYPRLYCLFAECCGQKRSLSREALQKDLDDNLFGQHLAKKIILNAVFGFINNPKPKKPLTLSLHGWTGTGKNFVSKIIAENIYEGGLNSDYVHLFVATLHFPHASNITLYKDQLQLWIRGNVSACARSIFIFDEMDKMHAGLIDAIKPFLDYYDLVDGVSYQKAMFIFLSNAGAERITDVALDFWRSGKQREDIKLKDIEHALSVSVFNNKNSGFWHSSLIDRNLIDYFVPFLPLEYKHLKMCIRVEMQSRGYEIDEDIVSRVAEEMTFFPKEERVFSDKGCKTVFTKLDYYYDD
The experiment in a line: co-IP.
Turning to B1, the “percentage immunoprecipitated from lysates by torsinA antibodies” value (from here on “percentage immunoprecipitated”) is 12%.

As to B2, the “percentage immunoprecipitated” value amounted to 11%.

For the molecule B3, the “percentage immunoprecipitated” value came to 21%.
